Test results published in article PMC2666730, “HMGB1/2 can target DNA for illegitimate cleavage by the RAG1/2 complex”.

How the values were obtained:
HMGB1 Tailless [1] = biological target: T1, HMGB1 Tailless (UniProt P09429 1-163); assay: EMSA; details: EMSA as in ref 30; binding buffer, salt, pH and temperature not given in the material; scale: fold more protein needed than for bps6197
HMGB1 full-length [2] = biological target: T2, HMGB1 full-length (UniProt P09429 1-215); assay: EMSA; details: EMSA as in ref 30; binding buffer, salt, pH and temperature not given in the material; scale: fold more protein needed than for bps6197
[3] = biological target: T3, cMR1 (core RAG1, MBP fusion);cMR2 (core RAG2, MBP fusion) (;, UniProt P15919;P21784 384-1040;1-387, |); assay: EMSA; without HMGB1; similar to 23-RSS, slightly more susceptible to cold 23-RSS; EMSA as in ref 30; binding buffer, salt, pH and temperature not given in the material; details: protein: recombinant;recombinant; tags: N-terminal MBP;N-terminal MBP; chain copies: 2;1; label: 5' radiolabel, top strand; blunt
T3 sequence 1: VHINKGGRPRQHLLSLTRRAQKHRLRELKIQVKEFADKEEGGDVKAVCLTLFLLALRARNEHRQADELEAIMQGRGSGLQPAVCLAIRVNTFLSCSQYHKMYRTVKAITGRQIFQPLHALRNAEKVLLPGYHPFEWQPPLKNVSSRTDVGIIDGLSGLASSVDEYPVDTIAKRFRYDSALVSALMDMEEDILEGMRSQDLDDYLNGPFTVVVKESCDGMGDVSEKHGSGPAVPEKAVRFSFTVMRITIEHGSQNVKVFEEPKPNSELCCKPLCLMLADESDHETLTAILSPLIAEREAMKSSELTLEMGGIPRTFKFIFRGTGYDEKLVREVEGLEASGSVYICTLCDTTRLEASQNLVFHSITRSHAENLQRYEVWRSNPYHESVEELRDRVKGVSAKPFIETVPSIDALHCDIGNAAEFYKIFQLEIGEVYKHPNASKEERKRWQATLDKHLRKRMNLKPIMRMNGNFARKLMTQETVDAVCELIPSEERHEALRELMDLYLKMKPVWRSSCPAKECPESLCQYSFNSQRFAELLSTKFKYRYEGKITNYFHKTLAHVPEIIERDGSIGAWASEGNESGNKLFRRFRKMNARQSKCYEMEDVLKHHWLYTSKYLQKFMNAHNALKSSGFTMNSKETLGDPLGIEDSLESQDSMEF
T3 sequence 2: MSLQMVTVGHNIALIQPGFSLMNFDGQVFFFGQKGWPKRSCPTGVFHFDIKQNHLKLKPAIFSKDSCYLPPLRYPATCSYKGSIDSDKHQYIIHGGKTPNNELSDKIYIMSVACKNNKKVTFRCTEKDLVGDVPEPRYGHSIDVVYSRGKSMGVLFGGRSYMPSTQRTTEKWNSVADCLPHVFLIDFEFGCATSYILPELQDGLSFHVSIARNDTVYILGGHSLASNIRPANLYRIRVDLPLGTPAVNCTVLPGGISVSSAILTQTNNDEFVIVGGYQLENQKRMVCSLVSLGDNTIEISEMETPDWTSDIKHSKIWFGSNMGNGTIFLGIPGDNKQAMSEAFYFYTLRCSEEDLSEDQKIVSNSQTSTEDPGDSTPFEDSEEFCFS

[4] = biological target: cMR1 (core RAG1, MBP fusion);cMR2 (core RAG2, MBP fusion);HMGB1 full-length (;;, UniProt P15919;P21784;P09429 384-1040;1-387;1-215, ||); assay: EMSA; with HMGB1; similar to 23-RSS; EMSA as in ref 30; binding buffer, salt, pH and temperature not given in the material; details: protein: recombinant;recombinant;recombinant; tags: N-terminal MBP;N-terminal MBP;N-terminal His6; chain copies: 2;1;1; label: 5' radiolabel, top strand; blunt
HMGB1 full-length [5] = biological target: T2, HMGB1 full-length; assay: EMSA; 0-320 ng HMGB1; EMSA as in ref 30; binding buffer, salt, pH and temperature not given in the material; details: protein: recombinant; tags: N-terminal His6; label: 5' radiolabel, top strand; blunt
HMGB1 Tailless [6] = biological target: T1, HMGB1 Tailless; assay: EMSA; 0-140 ng tailless HMGB1; EMSA as in ref 30; binding buffer, salt, pH and temperature not given in the material; details: protein: recombinant; tags: N-terminal His6; label: 5' radiolabel, top strand; blunt

T2 sequence (P09429 whole entry, the tested form may be a part): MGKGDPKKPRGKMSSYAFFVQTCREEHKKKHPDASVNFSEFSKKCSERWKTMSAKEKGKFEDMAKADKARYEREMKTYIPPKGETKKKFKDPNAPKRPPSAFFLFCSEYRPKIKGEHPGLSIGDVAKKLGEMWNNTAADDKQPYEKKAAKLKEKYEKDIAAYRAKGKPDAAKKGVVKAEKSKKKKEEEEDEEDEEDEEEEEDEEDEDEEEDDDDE
T1 sequence (P09429 1-163): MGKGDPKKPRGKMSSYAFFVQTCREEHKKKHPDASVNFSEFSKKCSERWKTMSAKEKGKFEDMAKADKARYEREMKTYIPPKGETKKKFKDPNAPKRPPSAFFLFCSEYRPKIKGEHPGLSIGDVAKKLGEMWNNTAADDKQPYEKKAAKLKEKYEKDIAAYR
cMR1 (core RAG1, MBP fusion);cMR2 (core RAG2, MBP fusion);HMGB1 full-length, sequence (P09429 whole entry, the tested form may be a part, one chain of several): as the sequence (P09429 whole entry, the tested form may be a part) above

23-RSS (consensus) was tested, and the binding signal (HMGB1 Tailless [1]) was 1.5 and the binding signal (HMGB1 full-length [2]) was 1.5.

B1: bps6197 (dsDNA)
DNA 1: TCCCCGAAAAGTGCCACCTGACGTCTAAGAAACCATTATTATCATGACATTAACCTATAAA
DNA 2: TTTATAGGTTAATGTCATGATAATAATGGTTTCTTAGACGTCAGGTGGCACTTTTCGGGGA
With B1 the binding result [3] was “binds”, the binding result [4] was “binds” and the binding signal (HMGB1 full-length [5]) was ~1.5 fold less protein needed than for 23-RSS. The binding signal (HMGB1 Tailless [6]) was ~1.5 fold less protein needed than for 23-RSS.
